Target: Kaposi's sarcoma-associated herpesvirus (KSHV) ORF68 protein (Kaposi's sarcoma-associated herpesvirus (KSHV))
Assay: SEC

Kaposi's sarcoma-associated herpesvirus (KSHV) ORF68 protein (natural protein)
stoichiometry N: 5

— paper doi:10.1101/322719
